Paper PMC11313276, “Structures of Mature and Urea-Treated Empty Bacteriophage T5: Insights into Siphophage Infection and DNA Ejection” (International Journal of Molecular Sciences, 2024)

B1: portal protein pb7 (natural protein, bacteriophage T5)
chain: LNPGQRIIRDMEPVSHRTNRKPFTTGQAYSKIEILNRTANMVIDSAAECSYTVGDKYNIVTYANGVKTKTLDTLLNVRPNPFMDISTFRRLVVTDLLFEGCAYIYWDGTSLYHVPAALMQVEADANKFIKKFIFNNQINYRVDEIIFIKDNSYVCGTNSQISGQSRVATVIDSLEKRSKMLNFKEKFLDNGTVIGLILETDEILNKKLRERKQEELQLDYNPSTGQSSVLILDGGMKAKPYSQISSFKDLDFKEDIEGFNKSICLAFGVPQVLLDGGNNANIRPNIELFYYMTIIPMLNKLTSSLTFFFGYKITPNTKEVAALTPDKEAEAKHLTSLVNNGIITGNEARSELNLEPLDDEQMNKIRIPANVAGSATGVSGQEGGRPKGSTEGD
notes: portal protein pb7 of bacteriophage T5, 403 residues in total; atomic model built for residues 11-377; source: also in virions treated with 4 M urea for 2 h at 37 °C and dialyzed; copies: 12
B2: distal tail protein pb9 (natural protein, bacteriophage T5)
chain: MRLPDPYTNPEYPGLGFESVNLVDNDPMIRDELPNGKVKEVKISAQYWGINISYPELFPDEYAFLDSRLLEYKRTGDYLDVLLPQYEAFRVRGDTKSVTIPAGQKGSQIILNTNGTLTGQPKAGDLFKLSTHPKVYKITNFSSSGNVWNISLYPDLFITTTGSEKPVFNGILFRTKLMNGDSFGSTLNNNGTYSGISLSLRESL
notes: distal tail protein pb9 of bacteriophage T5
B3: p140 (natural protein, bacteriophage T5)
chain: MFYSLMRESKIVIEYDGRGYHFDALSNYDASTSFQEFKTLRRTIHNRTNYADSIINAQDPSSISLAINFSTTLIESNFFDWMGFTREGNSLFLPRNTPNIEPIMFNMYIINHNNSCIYFENCYVSTVDFSLDKSIPILNVGIESGKFSEVSTFRDGYTITQGEVLPYSAPAVYTNSSPLPALISASMSFQQQCSWREDRNIFDINKIYTNKRAYVNEMNASATLAFYYVKRLVGDKFLNLDPETRTPLIIKNKYVSITFPLARISKRLNFSDLYQVEYDVIPTADSDPVEINFFGERK
notes: tail tip complex protein p140 of bacteriophage T5
B4: baseplate hub protein pb3 (natural protein, bacteriophage T5)
chain: MKKILDSAKNYLNTHDKLKTACLIALELPSSSGSAATYIYLTDYFRDVTYNGILYRSGKVKSISSHKQNRQLSIGSLSFTITGTAEDEVLKLVQNGVSFLDRGITIHQAIINEEGNILPVDPDTDGPLLFFRGRITGGGIKDNVNTSGIGTSVITWNCSNQFYDFDRVNGRYTDDASHRGLEVVNGTLQPSNGAKRPEYQEDYGFFHSNKSTTILAKYQVKEERYKLQSKKKLFGLSRSYSLKKYYETVTKEVDLDFNLAAKFIPVVYGVQKIPGIPIFADTELNNPNIVYVVYAFAEGEIDGFLDFYIGDSPMICFDETDSDTRTCFGRKKIVGDTMHRLAAGTSTSQPSVHGQEYKYNDGNGDIRIWTFHGKPDQTAAQVLVDIAKKKGFYLQNQNGNGPEYWDSRYKLLDTAYAIVRFTINENRTEIPEISAEVQGKKVKVYNSDGTIKADKTSLNGIWQLMDYLTSDRYGADITLDQFPLQKVISEAKILDIIDESYQTSWQPYWRYVGWNDPLSENRQIVQLNTILDTSESVFKNVQGILESFGGAINNLSGEYRITVEKYSTNPLRINFLDTYGDLDLSDTTGRNKFNSVQASLVDPALSWKTNSITFYNSKFKEQDKGLDKKLQLSFANITNYYTARSYADRELKKSRYSRTLSFSVPYKFIGIEPNDPIAFTYERYGWKDKFFLVDEVENTRDGKINLVLQEYGEDVFINSEQVDNSGNDIPDISNNVLPPRDFKYTPTPGGVVGAIGKNGELSWLPSLTNNVVYYSIAHSGHVNPYIVQQLENNPNERMIQEIIGEPAGLAIFELRAVDINGRRSSPVTLSVDLNSAKNLSVVSNFRVVNTASGDVTEFVGPDVKLAWDKIPEEEIIPEIYYTLEIYDSQDRMLRSVRIEDVYTYDYLLTYNKADFALLNSGALGINRKLRFRIRAEGENGEQSVGWATI
notes: baseplate hub protein pb3 of bacteriophage T5
B5: decoration protein pb10 (natural protein, bacteriophage T5, UniProt Q6QGD6 1-164, looked up)
chain: MIDYSGLRTIFGEKLPESHIFFATVAAHKYVPSYAFLRRELGLSSAHTNRKVWKKFVEAYGKAIPPAPPAPPLTLSKDLTASMSVEEGAALTLSVTATGGTGPYTYAWTKDGSPIPDASGATYTKPTAAAEDAGSYKVTVTDSKQVSKDSTTCAVTVNPTVPGG
notes: decoration protein pb10 of bacteriophage T5, 164 residues; alpha-helical domain and Ig-like domain; only residues 2-68 (alpha-helical domain) were resolved; One pb10 at the centre of each hexon; the Ig-like domain is flexible and was not modelled; also called gp10
B6: tail tube protein (TTP) pb6 (natural protein, bacteriophage T5)
chain: MSLQLLRNTRIFVSTVKTGHNKTNTQEILVQDDISWGQDSNSTDITVNEAGPRPTRGSKRFNDSLNAAEWSFSTYILPYKDKNTSKQIVPDYMLWHALSSGRAINLEGTTGAHNNATNFMVNFKDNSYHELAMLHIYILTDKTWSYIDSCQINQAEVNVDIEDIGRVTWSGNGNQLIPLDEQPFDPDQIGIDDETYMTIQGSYIKNKLTILKIKDMDTNKSYDIPITGGTFTINNNITYLTPNVMSRVTIPIGSFTGAFELTGSLTAYLNDKSLGSMELYKDLIKTLKVVNRFEIALVLGGEYDDERPAAILVAKQAHVNIPTIETDDVLGTSVEFKAIPSDLDAGDEGYLGFSSKYTRTTINNLIVNGDGATDAVTAITVKSAGNVTTLNRSATLQMSVEVTPSSARNKEVTWAITAGDAATINATGLLRADASKTGAVTVEATAKDGSGVKGTKVITVTAGG
notes: tail tube protein pb6 of bacteriophage T5; domains pb6D1, pb6D2 and a protruding Ig-like domain; atomic model built for residues 3-378 (pb6D1 and pb6D2); The tail tube has 40 stacked trimeric rings
B7: major capsid protein (MCP) pb8 (natural protein, bacteriophage T5, UniProt Q6QGD8 160-458, looked up)
chain: AVNQSSSVEVSSESYETIFSQRIIRDLQKELVVGALFEELPMSSKILTMLVEPDAGKATWVAASTYGTDTTTGEEVKGALKEIHFSTYKLAAKSFITDETEEDAIFSLLPLLRKRLIEAHAVSIEEAFMTGDGSGKPKGLLTLASEDSAKVVTEAKADGSVLVTAKTISKLRRKLGRHGLKLSKLVLIVSMDAYYDLLEDEEWQDVAQVGNDSVKLQGQVGRIYGLPVVVSEYFPAKANSAEFAVIVYKDNFVMPRQRAVTVERERQAGKQRDAYYVTQRVNLQRYFANGVVSGTYAAS
notes: major capsid protein pb8 of bacteriophage T5, 458 residues; atomic model built for residues 164-457; also called MCP gp8; gp8

Key:
Assay in all cases: cryo-EM structure; mature T5 virions (fiberless mutant) purified by CsCl gradients, in buffer A (100 mM NaCl, 1 mM MgSO4, 1 mM CaCl2, 10 mM Tris-HCl, pH 7.6); icosahedral, symmetry-mismatch and local reconstructions of head, portal, connector, tail tube and tail tip
[1] = target: tail terminator protein p142 (bacteriophage T5)
[2] = target: adaptor protein p144 (bacteriophage T5)
[3] = target: the molecule itself
[4] = target: B7; conditions: both partners purified

| Molecule | stoichiometry N [3] | also measured |
| --- | --- | --- |
| tail terminator protein p142 (natural protein) |  | stoichiometry N [1]: 6 |
| adaptor protein p144 (natural protein) |  | stoichiometry N [2]: 12 |
| B1 | 12 |  |
| B2 | 6 |  |
| B3 | 3 |  |
| B4 | 3 |  |
| B5 |  | binding result [4]: binds |
| B6 | 3 |  |
| B7 | 775 |  |
